Results taken from the Immune Epitope Database (IEDB).
pKd: −log10 of the molar value.

Tests used:
Experiment in all cases: IEDB peptide-MHC binding, purified MHC/competitive/radioactivity; filed as Kd, often an IC50 or EC50 that approximates it; ≥ and ≤ were set here for values at or beyond the usual limits of such assays
[1] = biological target: HLA-A*68:01
[2] = biological target: HLA-A*03:01
[3] = biological target: HLA-A*33:01
[4] = biological target: HLA-A*31:01
[5] = biological target: HLA-A*11:01
[6] = source organism: Vaccinia virus WR
[7] = source organism: Dengue virus 1 Brazil/97-11/1997
[8] = source organism: Vaccinia virus Copenhagen
[9] = source organism: SARS coronavirus Tor2
[10] = source organism: Dengue virus 3 Martinique/1243/1999
[11] = source organism: Dengue virus 2 Peru/IQT2913/1996
[12] = source organism: Lymphocytic choriomeningitis virus (strain Armstrong)
[13] = source organism: Mammarenavirus lassaense
[14] = source organism: Dengue virus 2 Jamaica/1409/1983
[15] = source organism: Triticum aestivum
[16] = source organism: Dengue virus 4 Philippines/H241/1956
[17] = source organism: Dengue virus 1 Singapore/S275/1990
[18] = source organism: Mammarenavirus machupoense

Sequence	pKd [1, 6]	pKd [2, 6]	pKd [3, 6]	pKd [4, 6]	pKd [5, 6]	further results
LMWNKQFIK	6.70	8.20	7.50	7.89	8.59	
GIFTTNIWLK						pKd [2, 7]: 7.84; pKd [5, 7]: 7.90
SLLKETIQK						pKd [1, 8]: 5.46; pKd [2, 8]: 7.40; pKd [3, 8]: 5.13; pKd [4, 8]: ≤ 4.70; pKd [5, 8]: 7.77
GFTATICLK						pKd [1, 8]: 7.09; pKd [2, 8]: 5.72; pKd [3, 8]: 6.33; pKd [4, 8]: 5.76; pKd [5, 8]: 7.39
GQGQNSADPK						pKd [1, 9]: ≤ 4.15; pKd [3, 9]: ≤ 4.15
ILARRPTPK						pKd [1, 8]: 5.75; pKd [2, 8]: 8.88; pKd [3, 8]: ≤ 4.17; pKd [4, 8]: 5.81; pKd [5, 8]: 7.34
AMCTNTFVLK						pKd [2, 10]: 7.69; pKd [5, 10]: 7.68
NVTLFYCDER	8.08	5.22	6.09	6.11	5.55	
PLTSLVITY	5.25	4.86	≤ 4.33	5.73	≤ 4.66	
TTTSTALGK						pKd [1, 9]: 7.55; pKd [2, 9]: 6.14; pKd [3, 9]: ≤ 4.11; pKd [4, 9]: 5.97; pKd [5, 9]: 7.50
TSTGNYNYK						pKd [1, 9]: 7.43; pKd [2, 9]: 5.84; pKd [3, 9]: 4.91; pKd [4, 9]: 6.82; pKd [5, 9]: 7.68
ALNDTWKIEK						pKd [2, 11]: 7.22; pKd [5, 11]: 6.40
MIRPQPMEHK						pKd [2, 7]: 8.05
GINNVQSLIK	4.99	6.77	≤ 4.15	4.79	7.76	
YITDDSDDY	≤ 4.11	≤ 4.11	≤ 4.11	≤ 4.11	≤ 4.11	
DFAVSKGFFK						pKd [1, 9]: 7.77; pKd [2, 9]: 6.11; pKd [3, 9]: 7.30; pKd [4, 9]: 5.98; pKd [5, 9]: 6.97
VLEIINDKGK	≤ 4.15	5.00	≤ 4.15	≤ 4.15	5.60	
TSLAIKNYY	5.78	4.74	≤ 4.53	5.65	6.53	
YTISSESLVY	7.67	6.08	≤ 4.15	≤ 4.55	7.50	
SKFWYLEHAK						pKd [1, 12]: ≤ 4.51; pKd [2, 12]: 4.73; pKd [3, 12]: 6.06; pKd [4, 12]: 6.00; pKd [5, 12]: 5.28
KAMLYIIRR	7.70	5.92	6.82	9.50	7.84	
LMYALEPRK	6.09	8.25	≤ 4.59	5.25	7.27	

Sequence	pKd [1, 6]	pKd [2, 6]	pKd [3, 6]	pKd [4, 6]	pKd [5, 6]	further results
EVYTQLCDHR						pKd [1, 10]: 7.84
NLKQLPFFYY						pKd [1, 9]: ≤ 5.00; pKd [2, 9]: ≤ 4.44; pKd [3, 9]: ≤ 4.15; pKd [4, 9]: ≤ 4.15; pKd [5, 9]: 5.27
LLNETAKVIK	5.40	5.80	4.81	5.61	6.64	
AVVYRGTTTY						pKd [1, 9]: 6.06; pKd [2, 9]: 6.91; pKd [3, 9]: 4.71; pKd [4, 9]: 5.30; pKd [5, 9]: 6.31
TCQGSDDIKK						pKd [1, 13]: 5.35; pKd [2, 13]: ≤ 4.15; pKd [3, 13]: ≤ 4.62; pKd [4, 13]: 5.20; pKd [5, 13]: 4.89
MSRVRISLIY	6.58	6.57	4.97	5.51	6.26	
MTLVPVLEKK	8.88	8.07	6.06	6.91	9.33	
SIMKNTTNTR						pKd [1, 14]: 6.86; pKd [4, 14]: 6.17
DFWRLYNSLK	6.14	5.78	8.50	5.59	6.00	
NVVHAIILH						pKd [1, 15]: 5.83; pKd [2, 15]: 4.71; pKd [3, 15]: ≤ 4.61; pKd [4, 15]: 4.85; pKd [5, 15]: ≤ 4.37
RLCLFDRYFK						pKd [1, 9]: 6.06; pKd [2, 9]: 7.62; pKd [3, 9]: 5.71; pKd [4, 9]: 7.34; pKd [5, 9]: 7.25
HTWQKQTQR						pKd [3, 10]: 7.24; pKd [4, 10]: 8.54
GSCVTTMAK						pKd [5, 14]: 6.94
IILANERYR	7.03	5.02	5.56	6.97	5.18	
LVTPSMTMR						pKd [4, 10]: 6.46
IIDAKNDDWK	5.64	5.20	≤ 4.15	≤ 4.15	4.80	
GAAVTLNRIK	5.08	5.76	≤ 4.15	≤ 4.39	5.98	
KSAAIDGEYR						pKd [1, 7]: 6.87; pKd [4, 7]: 8.39
RMLINRFTMK						pKd [2, 14]: 8.21; pKd [5, 14]: 6.48
LLKILDNLR	6.15	4.71	7.07	7.68	6.20	
FAYVMNIER	9.42	5.36	7.90	7.43	7.18	
LVTRKCPQKK	≤ 4.15	≤ 4.15	≤ 4.15	≤ 4.15	4.80	

Sequence	pKd [1, 6]	pKd [2, 6]	pKd [3, 6]	pKd [4, 6]	pKd [5, 6]	further results
STSAADIKR	8.28	≤ 4.52	≤ 4.66	5.89	7.88	
CSRMLDTSEK	5.11	6.00	≤ 4.15	5.81	5.79	
TAKEVALLR						pKd [1, 16]: 7.12; pKd [3, 16]: 7.76
AQRRGRVGR						pKd [4, 10]: 7.88
QLLKILDNLR	6.25	≤ 4.15	5.25	7.16	4.82	
TTYDFLARK	6.98	7.32	5.07	7.09	9.40	
GFPFNKWGK						pKd [1, 9]: 4.76; pKd [2, 9]: ≤ 4.68; pKd [3, 9]: 4.75; pKd [4, 9]: 6.14; pKd [5, 9]: 6.18
GMNDYLGIFK	6.24	8.54	5.22	6.41	8.37	
KAGNILFWPY	4.85	6.61	≤ 4.15	≤ 4.65	6.44	
DTSASEIKDR	7.75	4.83	6.08	5.10	5.95	
VLLRKNGNK						pKd [1, 9]: ≤ 4.58; pKd [2, 9]: 7.37; pKd [3, 9]: 5.02; pKd [4, 9]: 5.63; pKd [5, 9]: 5.78
TTLLNETAK	7.99	6.70	5.09	5.45	7.88	
ISNMLNIMNR						pKd [3, 17]: 6.80; pKd [4, 17]: ≤ 4.42
ESNILDIDLR						pKd [1, 14]: 6.80
FFTYLCGFIK						pKd [1, 9]: 6.69; pKd [2, 9]: 6.36; pKd [3, 9]: 5.92; pKd [4, 9]: 6.21; pKd [5, 9]: 6.02
VSDLYTSMR	6.19	5.60	5.38	5.88	5.33	
SIHLTKTDK	6.85	8.17	≤ 4.32	5.03	8.03	
IALGLMALK						pKd [5, 10]: 7.37
TVKMGAFMY	7.31	6.28	5.06	5.52	7.60	
SMQNCLLRLK						pKd [1, 9]: 5.89; pKd [2, 9]: 8.00; pKd [3, 9]: 6.14; pKd [4, 9]: 7.74; pKd [5, 9]: 7.75
EKFGHLCKYH						pKd [1, 18]: ≤ 4.15; pKd [2, 18]: ≤ 4.15; pKd [3, 18]: ≤ 4.15; pKd [4, 18]: ≤ 4.15; pKd [5, 18]: ≤ 4.16
DTSYYVKEY	7.16	≤ 4.11	≤ 4.11	≤ 4.11	4.84	

Sequence	pKd [1, 6]	pKd [2, 6]	pKd [3, 6]	pKd [4, 6]	pKd [5, 6]	further results
HLTKTDKKY	5.14	≤ 4.64	≤ 4.38	5.02	5.71	
EIINDKGKQY	5.40	≤ 4.15	≤ 4.15	4.89	≤ 4.16	
SYVMCTGSFK						pKd [2, 7]: 6.95; pKd [3, 7]: 7.75
ALNDMGKVRK						pKd [2, 14]: 7.44
TLNVLAWLY						pKd [1, 9]: 4.88; pKd [2, 9]: 7.44; pKd [3, 9]: 5.13; pKd [4, 9]: 5.57; pKd [5, 9]: 7.60
PTKRCRLLK	≤ 4.64	5.96	≤ 4.63	5.27	5.98	
MTLDDLAIK	7.40	6.03	5.63	6.39	7.43	
LVEYGTVVNK	6.67					
ITWIGMNSR						pKd [3, 14]: 7.45; pKd [4, 14]: 7.95
LLLRKLTSK						pKd [2, 14]: 7.54
MALFQPANK						pKd ([5]; source organism: Mammarenavirus juninense): 7.32
WSYYCGGLK						pKd [2, 14]: 8.89
STQSVLCVKK	8.45	6.93		6.74	9.80	
VVGAGGVGK						pKd ([2]; source organism: Homo sapiens): 6.90; pKd ([5]; source organism: Homo sapiens): 7.04
TVGPWHLGK						pKd [2, 16]: 7.77; pKd [5, 16]: 7.61
MTATPPGSR						pKd [1, 14]: 7.74
TTILTPMLR						pKd [1, 16]: 7.96; pKd [3, 16]: 7.44; pKd [5, 16]: 6.41
SQLAKRFSK						pKd [5, 7]: 7.30
MTIIGRRLQR						pKd [1, 16]: 7.98; pKd [3, 16]: 7.49; pKd [4, 16]: 7.82
TAGPWHLGK						pKd [5, 14]: 7.18
TIFAGHLKCR						pKd [1, 7]: 7.77
